Legend:
[1] = tested on: Saccharomyces cerevisiae; assay: protein stability index of tFT-peptide fusion in deletion strain of DOA10 (PSI (0-1 scale)); higher = more stable (slower turnover)
Experimental: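 MPS profiling in S. cerevisiae of two library types built from selected 12-aa C-degron peptides (IN1, IN2, LN1, LN3, VN2, R1-R5, W1-W3, Atg1 and Rpa12 C-termini): saturation mutagenesis libraries and C-terminal +1 capping libraries (13 aa). Each peptide is fused to the C-terminus of a sfGFP-mCherry timer, after a GGGS linker. Cells are FACS-sorted into 8 mCherry/sfGFP bins and sequenced. PSI runs from 0 (unstable) to 1 (stable), measured once in wild type and in the das1Δ or doa10Δ background.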

[2] = tested on: Saccharomyces cerevisiae; assay: protein stability index of tFT-peptide fusion in wild type (PSI (0-1 scale)); higher = more stable (slower turnover); settings: genetic background: wild type
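For protein stability index of tFT-peptide fusion in deletion strain of DOA10 in this document: PSI per variant is the weighted mean of its sequencing read distribution over the sorted stability bins, counting only variants with over 10 reads summed across bins.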
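For protein stability index of tFT-peptide fusion in wild type in this document: PSI derived as read-weighted mean over the 8 sorting bins, only variants exceeding 10 total reads kept, mCherry placed adjacent to the peptide and sfGFP distal.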

Row | Sequence | protein stability index [1] | protein stability index [2]
1 | RSHRVLLPLYFR | 0.651 | 0.317
2 | RVTRLDTIYFRI | 0.69 | 0.423
3 | AITLPMCPFLLR | 0.661 | 0.624
4 | CLVSEPILLFFR | 0.643 | 0.499
5 | RSLRVLLPLYQR | 0.659 | 0.617
6 | RVGRLDAIYFRI | 0.647 | 0.412
7 | AITLPMCPLLNR | 0.671 | 0.644
8 | YVTRLDAIYFRI | 0.603 | 0.185
9 | GYYMCSVGCWFR | 0.643 | 0.227
10 | RVTYLDAIYFRI | 0.563 | 0.393
11 | RSLRVLLPFYFR | 0.668 | 0.564
12 | CLVSLPIGLFFR | 0.674 | 0.101
13 | GLYMCSVGVWFR | 0.453 | 0.198
14 | AITLPMCPLALR | 0.643 | 0.577
15 | RVTRLDAIIFRI | 0.703 | 0.499
16 | RSLNVLLPLYFR | 0.669 | 0.266
17 | CLMSLPILLFFR | 0.591 | 0.0514
18 | RTLRVLLPLYFR | 0.657 | 0.304
19 | AITLEMCPLLLR | 0.667 | 0.372
20 | AITLPMCPLLLRG | 0.55 | 0.31
21 | GITLPMCPLLLR | 0.668 | 0.099
22 | RSLRRLLPLYFR | 0.683 | 0.466

Row | Sequence | protein stability index [1] | protein stability index [2]
23 | GLYMCSVGCWYR | 0.611 | 0.407
24 | RSLRGLLPLYFR | 0.696 | 0.444
25 | RVTRLDAIYFRID | 0.603 | 0.54
26 | GVYMCSVGCWFR | 0.622 | 0.276
27 | CLVSLPILLWFR | 0.567 | 0.0579
28 | GLYMCSVVCWFR | 0.314 | 0.253
29 | AITLPCCPLLLR | 0.659 | 0.236
30 | RSLRVLLQLYFR | 0.606 | 0.383
31 | AITLPMCPLLLQ | 0.654 | 0.567
32 | RVTRLDATYFRI | 0.69 | 0.661
33 | GLYMCSVGCWFV | 0.467 | 0.4
34 | YITLPMCPLLLR | 0.616 | 0.337
35 | CLVTLPILLFFR | 0.576 | 0.048
36 | RSLRVLHPLYFR | 0.701 | 0.218
37 | CLVSLPILLNFR | 0.655 | 0.424
38 | CLVSLPIWLFFR | 0.58 | 0.0275
39 | RSLRVLLPLYRR | 0.673 | 0.624
40 | AITLPMCPLLCR | 0.265 | 0.238
41 | AITLPMCPLLLW | 0.646 | 0.436
42 | LITLPMCPLLLR | 0.626 | 0.349
43 | RGTRLDAIYFRI | 0.684 | 0.57
44 | RVTRLDAFYFRI | 0.713 | 0.644

Row | Sequence | protein stability index [1] | protein stability index [2]
45 | RSLRVLLPLPFR | 0.676 | 0.64
46 | GLKMCSVGCWFR | 0.678 | 0.247
47 | RSLRVVLPLYFR | 0.679 | 0.178
48 | CLVILPILLFFR | 0.456 | 0.0975
49 | RSLRVLLNLYFR | 0.659 | 0.397
50 | VITLPMCPLLLR | 0.615 | 0.303
51 | RVTRLDAEYFRI | 0.693 | 0.675
52 | CLVSLPILLFQR | 0.583 | 0.515
53 | AITLPMCPLELR | 0.682 | 0.641
54 | GLYMCSWGCWFR | 0.665 | 0.296
55 | RTTRLDAIYFRI | 0.658 | 0.498
56 | RSLRVLLPIYFR | 0.663 | 0.242
57 | CLVSLPILLFFRG | 0.564 | 0.0927
58 | AIQLPMCPLLLR | 0.649 | 0.213
59 | RSLSVLLPLYFR | 0.682 | 0.289
60 | RSLQVLLPLYFR | 0.675 | 0.264
61 | RSLEVLLPLYFR | 0.691 | 0.219
62 | CLVSLPILLFFN | 0.288 | 0.118
63 | RYTRLDAIYFRI | 0.673 | 0.421
64 | RSLRVLLPEYFR | 0.677 | 0.653
65 | GLYMCSVGCWFQ | 0.504 | 0.476
66 | GLYMCSVGTWFR | 0.668 | 0.514

Row | Sequence | protein stability index [1] | protein stability index [2]
67 | CLVSLPILLFFS | 0.467 | 0.297
68 | RVTRDDAIYFRI | 0.684 | 0.652
69 | CLESLPILLFFR | 0.65 | 0.192
70 | CLVSLPILLFFRI | 0.469 | 0.0568
71 | CLVYLPILLFFR | 0.404 | 0.0623
72 | RGLRVLLPLYFR | 0.673 | 0.378
73 | YLYMCSVGCWFR | 0.586 | 0.317
74 | AITLPMCPHLLR | 0.687 | 0.645
75 | GLYMKSVGCWFR | 0.673 | 0.257
76 | CLGSLPILLFFR | 0.628 | 0.0966
77 | GLYMCSVGCWSR | 0.622 | 0.584
78 | NVTRLDAIYFRI | 0.711 | 0.379
79 | GLYMCKVGCWFR | 0.631 | 0.396
80 | GLYMCSVECWFR | 0.465 | 0.456
81 | CLVSLPILLFFRM | 0.458 | 0.0495
82 | RVTRADAIYFRI | 0.684 | 0.525
83 | AITLPMCNLLLR | 0.683 | 0.29
84 | RVTRLDAIYGRI | 0.724 | 0.69
85 | GLYMCSVGCWKR | 0.66 | 0.612
86 | AITLPMCPLLIR | 0.427 | 0.219
87 | CLVSRPILLFFR | 0.638 | 0.115
88 | GLYRCSVGCWFR | 0.67 | 0.428

Row | Sequence | protein stability index [1] | protein stability index [2]
89 | RVTRLDAIYFGI | 0.721 | 0.682
90 | GLYNCSVGCWFR | 0.674 | 0.414
91 | RSLRVLLPLYFRM | 0.411 | 0.202
92 | RSLRVCLPLYFR | 0.671 | 0.194
93 | RVTRLDAIYDRI | 0.731 | 0.696
94 | CLVSDPILLFFR | 0.656 | 0.589
95 | RVTRLDAIYSRI | 0.737 | 0.702
96 | AIWLPMCPLLLR | 0.657 | 0.224
97 | AITLPMCPLLLY | 0.517 | 0.404
98 | AIDLPMCPLLLR | 0.651 | 0.319
99 | CLVSLPILEFFR | 0.672 | 0.637
100 | RSLRVLLPLNFR | 0.671 | 0.535
101 | GLYMCSIGCWFR | 0.602 | 0.231
102 | CLYMCSVGCWFR | 0.584 | 0.276
103 | GLYMCSVGCWFRY | 0.619 | 0.173
104 | AITLHMCPLLLR | 0.62 | 0.271
105 | AATLPMCPLLLR | 0.684 | 0.377
106 | CLVDLPILLFFR | 0.635 | 0.0636
107 | CLVSLPILLFFRC | 0.45 | 0.0599
108 | RVTRLDADYFRI | 0.722 | 0.686
109 | CTVSLPILLFFR | 0.619 | 0.0564

From the supplement of paper PMC10724198
